Assay [1] has as its target T1, human cytosolic seryl-tRNA synthetase (SerRS), tag-free, purified separately (human, UniProt P49591 1-514). The assay is described as follows: 80 uM ADPR.
The target of assay [2] is T1, human cytosolic seryl-tRNA synthetase …. The assay can be described thus: 2000 uM ADPR.
The target is the same in assay [3]. The assay is described as follows: 2000 uM NAD+.

B1: human sirtuin 2 (SIRT2), C-terminal His tag (enzyme)
chain: MAEPDPSHPLETQAGKVQEAQDSDSDSEGGAAGGEADMDFLRNLFSQTLSLGSQKERLLDELTLEGVARYMQSERCRRVICLVGAGISTSAGIPDFRSPSTGLYDNLEKYHLPYPEAIFEISYFKKHPEPFFALAKELYPGQFKPTICHYFMRLLKDKGLLLRCYTQNIDTLERIAGLEQEDLVEAHGTFYTSHCVSASCRHEYPLSWMKEKIFSEVTPKCEDCQSLVKPDIVFFGESLPARFFSCMQSDFLKVDLLLVMGTSLQVQPFASLISKAPLSTPRLLINKEKAGQSDPFLGMIMGLGGGMDFDSKKAYRDVAWLGECDQGCLALAELLGWKKELEDLVRREHASIDAQSGAGVPNPSTSASPKKSPPPAKDEARTTEREKPQ
The Kd is the concentration at which binding is half-saturated. Higher therefore signals a looser complex. On to B1, for which the results for the Kd in assay [1], in assay [2] and in assay [3] were 530 nM, 430 nM and 530 nM, respectively.

Values taken from paper PMC13478228 (2026).
